Measurements published in paper PMC11066007, “CORVET-specific subunit levels determine the balance between HOPS/CORVET endosomal tethering complexes” (Scientific Reports, 2024).
Each block holds one binder with its values, some of them ahead of it.

Columns and labels:
[1] = biological target: T1, VPS41-FLAG (human, UniProt P49754 1-854); test: co-IP; anti-FLAG beads on total lysates of HEK293 cells stably transfected with a FLAG-tagged specific subunit, with or without transient overexpression of the counterpart subunit (control: pCMV); endogenous VPS11 and VPS18 detected by western blot, densitometry with ImageJ; lysis buffer 50 mM TRIS-HCl pH 7.5, 150 mM NaCl, 1% Triton X-100, 5 mM EDTA; 1.5 h at 4 °C; details: partners not purified
T1 construct: VPS41, human, HOPS-specific subunit; DNA region encoding the full-length protein fused with a FLAG tag; The label puts FLAG after the name, but the methods say N-terminal tags were used for VPS41 and VPS39; also called HOPS-specific VPS41; source: HEK293, stably transfected (pCMV3), in lysate; not shown: FLAG, N-terminal, kept
T1 sequence (looked up): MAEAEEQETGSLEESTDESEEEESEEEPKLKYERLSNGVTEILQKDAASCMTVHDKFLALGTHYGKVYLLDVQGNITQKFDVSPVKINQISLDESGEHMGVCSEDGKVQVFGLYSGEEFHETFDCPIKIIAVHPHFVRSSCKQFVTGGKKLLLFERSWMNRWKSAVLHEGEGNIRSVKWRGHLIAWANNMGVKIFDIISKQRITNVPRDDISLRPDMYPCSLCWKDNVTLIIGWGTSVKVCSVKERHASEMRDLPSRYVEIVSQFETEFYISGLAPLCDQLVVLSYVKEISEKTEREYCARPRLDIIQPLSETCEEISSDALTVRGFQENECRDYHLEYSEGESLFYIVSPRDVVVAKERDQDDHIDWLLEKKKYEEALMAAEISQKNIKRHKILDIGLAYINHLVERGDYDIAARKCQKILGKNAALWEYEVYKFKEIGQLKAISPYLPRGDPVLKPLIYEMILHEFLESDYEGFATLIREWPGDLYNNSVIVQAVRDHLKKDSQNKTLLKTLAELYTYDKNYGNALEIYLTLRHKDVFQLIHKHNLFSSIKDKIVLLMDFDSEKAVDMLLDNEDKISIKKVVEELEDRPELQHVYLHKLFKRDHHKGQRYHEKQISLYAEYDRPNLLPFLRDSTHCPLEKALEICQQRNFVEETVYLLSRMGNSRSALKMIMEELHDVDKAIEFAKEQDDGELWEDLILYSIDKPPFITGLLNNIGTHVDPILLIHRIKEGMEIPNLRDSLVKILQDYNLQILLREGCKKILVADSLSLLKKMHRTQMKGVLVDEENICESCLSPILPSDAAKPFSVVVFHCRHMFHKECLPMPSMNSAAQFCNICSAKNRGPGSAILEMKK

[2] = biological target: T2, VPS8-FLAG (human, UniProt Q8N3P4 1-1428); test: as above; details: partners not purified
T2 construct: VPS8, human, CORVET-specific subunit; DNA region encoding the full-length protein fused with a FLAG tag; also called CORVET-specific VPS8; source: HEK293, stably transfected (pCMV3), in lysate; not shown: FLAG, C-terminal, kept
T2 sequence (looked up): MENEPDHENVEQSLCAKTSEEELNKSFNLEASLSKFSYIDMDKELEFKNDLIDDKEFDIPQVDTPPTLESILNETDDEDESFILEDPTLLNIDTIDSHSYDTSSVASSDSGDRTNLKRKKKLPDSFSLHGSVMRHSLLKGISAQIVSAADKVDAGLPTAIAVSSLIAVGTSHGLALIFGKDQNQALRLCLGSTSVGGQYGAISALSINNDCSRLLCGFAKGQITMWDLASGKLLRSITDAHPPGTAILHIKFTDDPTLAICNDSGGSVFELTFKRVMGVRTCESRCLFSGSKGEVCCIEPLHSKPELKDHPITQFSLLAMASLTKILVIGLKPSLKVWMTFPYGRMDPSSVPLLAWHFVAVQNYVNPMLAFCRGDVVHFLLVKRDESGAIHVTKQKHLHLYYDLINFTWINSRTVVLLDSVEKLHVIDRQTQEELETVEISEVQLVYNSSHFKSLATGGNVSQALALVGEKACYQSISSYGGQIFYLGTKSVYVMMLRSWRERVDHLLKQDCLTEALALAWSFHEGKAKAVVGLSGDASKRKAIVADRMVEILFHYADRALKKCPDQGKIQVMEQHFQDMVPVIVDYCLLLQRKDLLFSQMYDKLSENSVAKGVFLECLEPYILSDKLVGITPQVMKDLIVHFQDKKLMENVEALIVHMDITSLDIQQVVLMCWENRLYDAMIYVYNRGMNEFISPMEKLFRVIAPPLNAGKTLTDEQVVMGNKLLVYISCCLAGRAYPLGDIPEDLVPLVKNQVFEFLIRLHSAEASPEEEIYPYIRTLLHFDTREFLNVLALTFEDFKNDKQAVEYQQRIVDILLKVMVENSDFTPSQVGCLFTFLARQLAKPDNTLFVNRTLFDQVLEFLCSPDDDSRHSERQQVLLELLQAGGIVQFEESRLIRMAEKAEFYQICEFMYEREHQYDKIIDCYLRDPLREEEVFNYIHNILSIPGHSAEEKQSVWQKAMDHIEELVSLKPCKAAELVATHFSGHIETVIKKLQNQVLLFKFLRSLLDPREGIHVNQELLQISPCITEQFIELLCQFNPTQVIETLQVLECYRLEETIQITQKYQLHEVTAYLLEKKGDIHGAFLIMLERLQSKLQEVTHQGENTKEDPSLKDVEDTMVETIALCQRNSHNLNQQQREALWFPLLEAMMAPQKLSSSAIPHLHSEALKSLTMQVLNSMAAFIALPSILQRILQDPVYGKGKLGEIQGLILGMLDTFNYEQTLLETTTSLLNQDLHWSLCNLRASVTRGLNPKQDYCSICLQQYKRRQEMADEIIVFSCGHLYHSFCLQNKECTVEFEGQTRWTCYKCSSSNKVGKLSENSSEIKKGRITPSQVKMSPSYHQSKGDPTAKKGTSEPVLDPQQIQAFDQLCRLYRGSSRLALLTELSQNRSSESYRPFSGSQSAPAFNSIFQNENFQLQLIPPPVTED

relative amount bound with VPS8 overexpressed (control cells HEK + pCMV as reference) [1]: 0.31 relative to control cells
relative amount bound with Vps41-HA overexpressed (control cells HEK + pCMV as reference) [2]: 1.52 relative to control cells
B1: VPS11 (natural protein, human (endogenous in HEK293), UniProt Q9H270 1-941, looked up)
chain: MAAYLQWRRFVFFDKELVKEPLSNDGAAPGATPASGSAASKFLCLPPGITVCDSGRGSLVFGDMEGQIWFLPRSLQLTGFQAYKLRVTHLYQLKQHNILASVGEDEEGINPLVKIWNLEKRDGGNPLCTRIFPAIPGTEPTVVSCLTVHENLNFMAIGFTDGSVTLNKGDITRDRHSKTQILHKGNYPVTGLAFRQAGKTTHLFVVTTENVQSYIVSGKDYPRVELDTHGCGLRCSALSDPSQDLQFIVAGDECVYLYQPDERGPCFAFEGHKLIAHWFRGYLIIVSRDRKVSPKSEFTSRDSQSSDKQILNIYDLCNKFIAYSTVFEDVVDVLAEWGSLYVLTRDGRVHALQEKDTQTKLEMLFKKNLFEMAINLAKSQHLDSDGLAQIFMQYGDHLYSKGNHDGAVQQYIRTIGKLEPSYVIRKFLDAQRIHNLTAYLQTLHRQSLANADHTTLLLNCYTKLKDSSKLEEFIKKKSESEVHFDVETAIKVLRQAGYYSHALYLAENHAHHEWYLKIQLEDIKNYQEALRYIGKLPFEQAESNMKRYGKILMHHIPEQTTQLLKGLCTDYRPSLEGRSDREAPGCRANSEEFIPIFANNPRELKAFLEHMSEVQPDSPQGIYDTLLELRLQNWAHEKDPQVKEKLHAEAISLLKSGRFCDVFDKALVLCQMHDFQDGVLYLYEQGKLFQQIMHYHMQHEQYRQVISVCERHGEQDPSLWEQALSYFARKEEDCKEYVAAVLKHIENKNLMPPLLVVQTLAHNSTATLSVIRDYLVQKLQKQSQQIAQDELRVRRYREETTRIRQEIQELKASPKIFQKTKCSICNSALELPSVHFLCGHSFHQHCFESYSESDADCPTCLPENRKVMDMIRAQEQKRDLHDQFQHQLKCSNDSFSVIADYFGRGVFNKLTLLTDPPTARLTSSLEAGLQRDLLMHSRRGT
notes: VPS11, shared class C core subunit of HOPS and CORVET, detected by anti-VPS11 western blot in anti-FLAG precipitates; also called core subunit VPS11; source: endogenous, HEK293 lysate

relative amount bound with VPS8 overexpressed (control cells HEK + pCMV as reference) [1]: 0.69 relative to control cells
relative amount bound with Vps41-HA overexpressed (control cells HEK + pCMV as reference) [2]: 1.21 relative to control cells
B2: VPS18 (natural protein, human (endogenous in HEK293), UniProt Q9P253 1-973, looked up)
chain: MASILDEYENSLSRSAVLQPGCPSVGIPHSGYVNAQLEKEVPIFTKQRIDFTPSERITSLVVSSNQLCMSLGKDTLLRIDLGKANEPNHVELGRKDDAKVHKMFLDHTGSHLLIALSSTEVLYVNRNGQKVRPLARWKGQLVESVGWNKALGTESSTGPILVGTAQGHIFEAELSASEGGLFGPAPDLYFRPLYVLNEEGGPAPVCSLEAERGPDGRSFVIATTRQRLFQFIGRAAEGAEAQGFSGLFAAYTDHPPPFREFPSNLGYSELAFYTPKLRSAPRAFAWMMGDGVLYGALDCGRPDSLLSEERVWEYPEGVGPGASPPLAIVLTQFHFLLLLADRVEAVCTLTGQVVLRDHFLEKFGPLKHMVKDSSTGQLWAYTERAVFRYHVQREARDVWRTYLDMNRFDLAKEYCRERPDCLDTVLAREADFCFRQRRYLESARCYALTQSYFEEIALKFLEARQEEALAEFLQRKLASLKPAERTQATLLTTWLTELYLSRLGALQGDPEALTLYRETKECFRTFLSSPRHKEWLFASRASIHELLASHGDTEHMVYFAVIMQDYERVVAYHCQHEAYEEALAVLARHRDPQLFYKFSPILIRHIPRQLVDAWIEMGSRLDARQLIPALVNYSQGGEVQQVSQAIRYMEFCVNVLGETEQAIHNYLLSLYARGRPDSLLAYLEQAGASPHRVHYDLKYALRLCAEHGHHRACVHVYKVLELYEEAVDLALQVDVDLAKQCADLPEEDEELRKKLWLKIARHVVQEEEDVQTAMACLASCPLLKIEDVLPFFPDFVTIDHFKEAICSSLKAYNHHIQELQREMEEATASAQRIRRDLQELRGRYGTVEPQDKCATCDFPLLNRPFYLFLCGHMFHADCLLQAVRPGLPAYKQARLEELQRKLGAAPPPAKGSARAKEAEGGAATAGPSREQLKADLDELVAAECVYCGELMIRSIDRPFIDPQRYEEEQLSWL
notes: VPS18, shared class C core subunit of HOPS and CORVET, detected by anti-VPS18 western blot in anti-FLAG precipitates; also called core subunit VPS18; source: endogenous, HEK293 lysate
